This passage reports elution fraction of HgSLP-1 in gel filtration results from patent US20160177392A1.

In this assay the target is soybean alpha-SNAP from the Rhg1 locus, full length, with C-terminal six-histidine tag (soybean (Glycine max)). Briefly: gel filtration (Superdex 75); HgSLP-1 alone eluted at fraction 23, albumin standard (67 kDa) at fraction 12, chymotrypsinogen A (25 kDa) at fraction 30. (In general: SEC sorts molecules by how far they enter the pores of the column.)

With “Heterodera glycines SNARE-like protein 1 (HgSLP-1), full length, expressed in E. coli”, the elution fraction of HgSLP-1 in gel filtration is 15.
